Test [1] concerns the target T1, rat promyostatin (rat, UniProt O35312 25-376). Description: biolayer interferometry (ForteBio Octet QKe), apitegromab on human Fc capture tips, promyostatin in solution, 1:1 global fit, single concentration. A general note: In BLI a coated tip is dipped into the sample, and binding shifts an interference pattern.
Method: (§1) All baseline steps, loading of biotinylated antigens, and antibody association and dissociation steps were performed in 1× kinetics buffer containing PBS pH 74 with 0.002% Tween 20 and 0.01% BSA. Association proceeded for 300 seconds and dissociations were then performed in 1× kinetics buffer for at least 600 seconds. Data analysis was performed on FortèBio Data Analysis software version 8.2. A 1:1 global fitting model considering both association and dissociation was then utilized for the single concentration KD determination for each antigen antibody/construct pair.
Test [2] deals with T2, cynomolgus monkey promyostatin (cynomolgus monkey, UniProt Q95J86 19-375).
T2 construct: also called cynomolgus promyostatin
Described as above.
Method: as §1

The target of test [3] is T1, rat promyostatin. Description: cell-based or functional assay.
Test [4] has as its target T2, cynomolgus monkey promyostatin. Description: cell-based or functional assay.

B1: Apitegromab (antibody, human IgG4 S228P, lambda, V domains shown)
VH: QVQLVESGGGVVQPGRSLRLSCAASGFTFSSYGMHWVRQAPGKGLEWVAVISYDGSNKYYADSVKGRFTISRDNSKNTLYLQMNSLRAEDTAVYYCARDLLVRFLEWSHYYGMDVWGQGTTVTVSS
VL: not shown
notes: Fully human monoclonal IgG4/lambda; also called SRK-015; anti-pro/latent myostatin antibody
As to B1, the Kd with rat promyostatin [1] was 2 nM; in test [2], 4.86 nM. Also, the “IC50 of inhibition of proteolytic activation of promyostatin (SMAD-responsive luciferase reporter cells)” value in the test with rat promyostatin [3] was found to be 153 nM; in test [4] it was 584 nM.

In general, Kd refers to the free concentration of one partner at which half of the binding sites on the other are occupied at equilibrium, for simple one-to-one binding.

The values are drawn from patent US20240002490A1 (SCHOLAR ROCK, published 2024).
